# Assay results taken from patent US20230141962A1.
# Biological target: SARS-CoV-2 spike protein S1 subunit (WIV4) (SARS-CoV-2 (isolate 2019-nCoV, WIV4)), P0DTC2
# Details: remark: other sources report otherwise
binder,measurement,value
scFv clone #26 (scFv) scFv: QAVLTQAPSASGTLGQQVTISCSGTTSNIGRNTVNWYQHLPGTAPKLLIFVSNQRPSGVPDRFSGSKSGTSASLVISGLQSEDEADYYCGAWDDSLDGMLFGGGTKLTVLGSRGGGGSGGGGSGGGGSLEMAQVQLVQSGAEVKKPGASVKVSCKASGYTFTSYGISWVRQAPGQGLEWMGWISAYNGNTNYAQKLQGRVTMTTDTSTSTAYMELRSLRSDDTAVYYCARGYYGDLDPWGQGTLVTVSSTSGQAGQ,IC50,1.33 nM
